Data on two molecules can be found in paper PMC4863741 (Genes & Development, 2016).

Assay [1] deals with T1, GST-His-Sfmbt-SAM_(1137-1220) (Drosophila, UniProt Q9VK33 1137-1220).
T1 sequence (looked up): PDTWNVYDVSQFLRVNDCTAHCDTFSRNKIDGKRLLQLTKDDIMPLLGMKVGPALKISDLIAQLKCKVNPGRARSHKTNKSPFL
As to the kind of experiment: pull-down.

A further assay concerns the target T2, Sfmbt-SAM_(1137-1220) (Drosophila, UniProt Q9VK33 1137-1220).
T2 sequence (looked up): T1 sequence (looked up)
As to the kind of experiment: SEC. (In general: SEC sorts molecules by how far they enter the pores of the column.)

B1: His-Scm-SAM_(803-877)^L855E/L859E (domain or fragment, Drosophila, UniProt Q9VHA0 803-877, looked up)
chain: PIDWTIEEVIQYIESNDNSLAVHGDLFRKHEIDGKALLLLNSEMMMKYMGLKEGPAEKICNLVNKVNGRRNNLAL
Take B1: the binding result in assay [1] is given as “binds”.

B2: Scm-SAM_(803-877)^L855E/L859E (coexpressed with Sfmbt-SAM) (domain or fragment, Drosophila, UniProt Q9VHA0 803-877, looked up)
chain: B1 chain
Turning to B2, in the assay with Sfmbt-SAM_(1137-1220), the binding result was “binds”.
